Key:
[1] = biological target: human LILRB1 (coated on plates in the competition ELISA) (human, UniProt Q8NHL6 24-461, limits assumed); assay: competition ELISA on coated human LILRB1; competitor 5 nM biotinylated Antibody 2
Description: FIG. 33. Cross-competition between Antibody (Clone) 2 and other Abs in ELISA. Plates were coated with human LILRB1 and, after blocking, incubated with 5 nM of biotinylated Clone 2 and different concentrations of unlabelled Clones 1-5 and the Reference 1-3 Abs. Bound biotinylated Clone 2 was detected using HRP-conjugated streptavidin and a chromogenic substrate. Unlabelled Clone 2 competed its biotinylated counterpart with low nM IC₅₀, while Clones 1, 3, 4 and 5 each yielded IC₅₀ of about 10 nM. None of the Reference Abs, nor the isotype control, could compete with Antibody 2 up to 250 nM concentrations.
Antibodies 1 to 5 were all found to bind within the D3-D4 fragment of human LILRB1. To investigate if Antibody 2 binds to an epitope similar to or different from the epitope of the other Antibodies (and Reference Antibodies) a competitive ELISA was performed. Plates were coated with human LILRB1 and after blocking incubated with 5 nM of biotinylated Antibody 2 and different concentrations of each unlabelled Antibody 1-5 and the Reference Antibodies 1 to 3. Bound biotinylated Antibody 2 was detected using HRP-conjugated streptavidin and a chromogenic substrate. Unlabelled Antibody 2 competed its biotinylated counterpart with low nM IC₅₀, while Antibodies 1, 3, 4 and 5 yielded IC₅₀ about 10 nM. None of the Reference Abs nor the isotype control could compete with Antibody 2 up to 250 nM concentrations.

[2] = biological target: T1, human LILRB1 ectodomain fused to mIgG2a Fc (human); assay: summary table (ELISA); Y = Yes
T1 construct: also called human LILRB1-mIgG2a; full length LILRB1 ectodomain
T1 sequence (chain, as listed by the source limits assumed): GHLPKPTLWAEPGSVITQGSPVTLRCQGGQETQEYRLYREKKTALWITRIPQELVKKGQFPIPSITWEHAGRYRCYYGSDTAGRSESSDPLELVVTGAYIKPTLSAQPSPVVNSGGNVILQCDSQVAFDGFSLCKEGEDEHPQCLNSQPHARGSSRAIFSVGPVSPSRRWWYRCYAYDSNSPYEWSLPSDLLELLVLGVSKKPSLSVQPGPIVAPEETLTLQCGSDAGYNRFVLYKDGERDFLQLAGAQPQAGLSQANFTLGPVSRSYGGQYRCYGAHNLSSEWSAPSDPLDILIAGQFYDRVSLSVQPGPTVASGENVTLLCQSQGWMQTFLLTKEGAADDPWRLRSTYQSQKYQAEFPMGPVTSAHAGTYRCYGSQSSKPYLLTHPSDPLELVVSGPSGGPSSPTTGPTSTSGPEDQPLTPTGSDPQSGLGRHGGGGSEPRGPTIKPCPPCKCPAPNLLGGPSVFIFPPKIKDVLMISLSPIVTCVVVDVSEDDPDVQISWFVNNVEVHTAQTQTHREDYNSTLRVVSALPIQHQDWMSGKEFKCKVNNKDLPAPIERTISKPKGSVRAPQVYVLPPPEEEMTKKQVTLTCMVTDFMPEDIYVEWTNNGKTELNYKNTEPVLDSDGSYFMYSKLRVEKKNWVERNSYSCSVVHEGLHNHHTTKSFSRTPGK

[3] = biological target: T2, Human LILRB1(L68P/A93T) ectodomain fused to mIgG2aFc (human); assay: ELISA, antigen coated, 10 nM antibody
T2 construct: The entry already carries the two substitutions
T2 sequence (chain, as listed by the source L68P A93T L68P A93T limits assumed): as the sequence (chain, as listed by the source limits assumed) above, with L45P, A70T counted along it
Source text: FIG. 3. Mixed LILRB1 and LILRB2 expression in TAMs from melanoma cancer patients. Analysis of LILRB1 and LILRB2 detection in macrophages in pre- and post-anti-PD-1 and/or anti-CTLA-4 therapy treated melanoma patients (n=33) is shown using Smart-seq2 data from Sade-Feldman et al. https://pubmed.ncbi.nlm.nih.gov/30633907/FIG. 4. Binding to domains of human LILRB1. Plates were coated with recombinant full length LILRB1 ectodomain (SEQ ID NO: 41) or a protein comprising domain 1 and 2 of human LILRB1 protein (SEQ ID NO: 42), and then incubated with 10 nM Clones 1-5, Reference Ab 1, and Isotype control. The bound antibodies were detected using HRP-labeled secondary antibodies and the results were plotted on the graph as absorbance measured at 450 nm.
Binding to allelic forms of LILRB1. There are 4 major allelic variants of human LILRB1 protein ectodomain. The variants of LILRB1 were expressed as recombinant proteins comprising a modified LILRB1 ectodomain and mouse IgG2 Fc region (SEQ ID NO: 50 and 51) in suspension CHO cells, and purified by using techniques that were known in the art. These recombinant proteins were then used in the direct enzyme-linked immunosorbent assay (ELISA) to determine the antibodies potential to bind different allelic forms of LILRB1. In short, Maxisorp (Nunc) or similar immune-assay plates were coated with solutions of target proteins in PBS, at 4° C., overnight. Plates were then washed with PBS, blocked with 5% milk in PBS, and washed again. Test antibodies diluted in PBS were then added to the plates and incubated at room temperature for at least 1h. Plates were subsequently washed with PBS/0.05% Tween-20 (PBST) and incubated with a solution of horse radish peroxidase (HRP) labelled secondary antibodies at room temperature for at least 1 h. After washing with PBST and PBS, bound antibodies were detected using the 3,3′,5,5;-tetramethylbenzidine (TMB) chromogenic solution. After 5 to 10 minutes, the reaction was stopped with 1% sulphuric acid and absorbance read at 450 nm.
There are four major allelic variants within the ecto-domain of LILRB1 in human population [Human Molecular Genetics, 2005, Vol. 14, 2469-2480]; namely c.203T>C (L68P), c.277G>A (A93T), c.425T>C (I142T), and c.464G>T (S155I).

Sequence of human LILRB1 (coated on plates in the competition ELISA) (Q8NHL6 24-461 limits assumed): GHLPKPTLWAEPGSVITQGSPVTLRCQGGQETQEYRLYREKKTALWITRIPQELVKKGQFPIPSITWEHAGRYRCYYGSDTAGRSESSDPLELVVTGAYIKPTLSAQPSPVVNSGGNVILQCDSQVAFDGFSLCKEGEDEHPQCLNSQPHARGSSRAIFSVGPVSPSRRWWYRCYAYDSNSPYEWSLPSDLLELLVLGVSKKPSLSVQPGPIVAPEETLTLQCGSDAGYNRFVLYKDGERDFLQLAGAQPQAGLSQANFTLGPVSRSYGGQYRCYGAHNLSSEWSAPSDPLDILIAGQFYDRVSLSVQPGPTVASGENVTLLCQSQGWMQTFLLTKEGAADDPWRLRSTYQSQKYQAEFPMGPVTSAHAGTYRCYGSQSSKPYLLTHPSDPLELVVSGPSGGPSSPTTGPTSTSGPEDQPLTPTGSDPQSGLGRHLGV

| Binder | IC50 [1] | binding result [2] | binding result [3] |
| --- | --- | --- | --- |
| Antibody 1 (antibody, V domains shown, Fully human antibody expressed in CHO; also called Clone 1; Antibody Clone 1) VH: QVQLVESGGGLVKPGGSLRLSCAASGFTFSDYYMSWIRQAPGKGLEWVSYISSSGSIKKYADSVKGRFTISRDNAKNSLYLQMNSLRGEDTAVYYCARTNWHFDYWGQGTLVTVSS VL: EIVLTQSPGTLSLSPGERATLSCRASQSVSSSYLAWYQQKPGQAPRLLIFGASTRATGIPDRFSGSGSGTDFTLTISRLEPEDVAVYYCQQYYSTPFTFGPGTKVDIK | ~10 nM | binds | binds |
| Antibody 5 (antibody, V domains shown, Fully human antibody; IgG4; also called Clone 5; Antibody Clone 5) VH: QVQLVESGGGLVKPGGSLRLSCAASGFTFSDYYMTWIRQAPGKGLEWVSYISISGITRYYADSVKGRFTISRDNAKNSLYLQMNSLRAEDTAVYYCARDQTGYFDYWGQGTLVTVSS VL: DIVMTQSPATLSVSPGEKTTLSCRASQSFSSNLAWYQQKPGQAPRLLIYGASTRATGIPARFSGSGSGTEFTLTISSLQSEDFAVYYCQQYINWPHTFGQGTKVEIK | ~10 nM | binds | binds |
| Antibody 3 (antibody, V domains shown, Fully human antibody; IgG4; also called Clone 3; Antibody Clone 3) VH: QVQLVQSGAEVKKPGASVKVSCKASGYTFTSYGISWVRQAPGQGLEWMGWISAYNGNTNYAQKLQGRVTMTTDTSTSTAYMELRSLRSDDTAVYYCARSYSGSHWWFDPWGQGTLVTVSS VL: not shown | ~10 nM | binds | binds |
| Antibody 4 (antibody, V domains shown, Fully human antibody; IgG4; also called Clone 4; Antibody Clone 4) VH: QVQLVQSGAEVKKPGASVKVSCKASGYTFTSYGISWVRQAPGQGLEWMGWISAYNGNTNYAQKLQGRVTMTTDTSTSTAYMELRSLRSDDTAVYYCARSYSGSYWWFDPWGQGTLVTVSS VL: not shown | ~10 nM | binds | binds |
